For this test, the target named is recombinant SARS-CoV-2 Spike 1 subunit (S1), Alpha S1 construct 1 (SARS-CoV-2 (WHO Alpha (WT) variant, …, UniProt P0DTC2 14-674)).

As usually defined, the EC50 is the concentration needed to bring the measured effect to its halfway point.

B1: recombinant biotinylated human angiotensin-converting enzyme 2 (ACE2-biotin), construct hACE-GS-6xHIS (receptor)
chain: STIEEQAKTFLDKFNHEAEDLFYQSSLASWNYNTNITEENVQNMNNAGDKWSAFLKEQSTLAQMYPLQEIQNLTVKLQLQALQQNGSSVLSEDKSKRLNTILNTMSTIYSTGKVCNPDNPQECLLLEPGLNEIMANSLDYNERLWAWESWRSEVGKQLRPLYEEYVVLKNEMARANHYEDYGDYWRGDYEVNGVDGYDYSRGQLIEDVEHTFEEIKPLYEHLHAYVRAKLMNAYPSYISPIGCLPAHLLGDMWGRFWTNLYSLTVPFGQKPNIDVTDAMVDQAWDAQRIFKEAEKFFVSVGLPNMTQGFWENSMLTDPGNVQKAVCHPTAWDLGKGDFRILMCTKVTMDDFLTAHHEMGHIQYDMAYAAQPFLLRNGANEGFHEAVGEIMSLSAATPKHLKSIGLLSPDFQEDNETEINFLLKQALTIVGTLPFTYMLEKWRWMVFKGEIPKDQWMKKWWEMKREIVGVVEPVPHDETYCDPASLFHVSNDYSFIRYYTRTLYQFQFQEALCQAAKHEGPLHKCDISNSTEAGQKLFNMLRLGKSEPWTLALENVVGAKNMNVRPLLNYFEPLFTWLKDQNKNSFVGWSTDGGGGSGGGGSHHHHHHH
modifications: biotinylated, 1-10 biotins per ACE2 [mole:mole]; positions not given
With B1, the concentration giving a half-maximal response (EC50) was found to be 500 pM.
